In paper PMC3506661:

Target: BAK (UniProt Q16611)
Test: biotinylated BH3 peptide pull-down from lysate
Details: reference: wild type, okadaic acid then UV; sites S117

“BAK (from UniProt Q16611) S117A, okadaic acid then UV” was tested, and the “binding against the reference” value was “gained”.
